# Patent US10836794B2, “Group of peptides for treating female sexual dysfunction” (“IVIX” Ltd., priority 2016, dated 2020)
# Non-standard residues stand in square brackets, D forms with d. No end group written: not given here. Hyp = O=C(O)[C@@H]1C[C@@H](O)CN1
# Columns and labels:
# [1] = Stability of liquid pharmaceutical forms (peptide 0.2 %, benzalkonium chloride 0.01 %, water) during storage; single and total impurities; format: physicochemical
# Text: Investigations of the Stability of Pharmaceutical Forms Containing Peptides Having the Property of Stimulating the Genital and Sexual Functions
# This experiment investigated the stability of compositions containing peptides according to the invention. The results of the investigations are illustrated by the example of several peptides according to the invention containing hydroxyproline, in particular Thr-Lys-Hyp […], Thr-Lys-Hyp-Arg-Hyp (SEQ ID NO: 13), Thr-Lys-Hyp-Arg-Hyp-Phe and Thr-Lys-Hyp-Arg-Hyp-Gly-Hyp (SEQ ID NO: 14).
# The peptides described in RU2507212 were also obtained, in particular Thr-Lys-Pro, Thr-Lys-Pro-Arg-Pro (SEQ ID NO: 6), Thr-Lys-Pro-Arg-Pro-Phe (SEQ ID NO: 7) and Thr-Lys-Pro-Arg-Pro-Gly-Pro (SEQ ID NO: 1).
# From the compounds obtained, a liquid pharmaceutical form (a solution) was prepared, including the peptide and the preservative benzalkonium chloride with the following ratio of components: 0.2 and 0.01 mass %, respectively, water the rest. Samples were placed in storage at two temperature regimes, namely, +4° C. and +25° C. Investigation of the stability of the peptides was carried out after 1, 3, 6, 12, and 24 months of storage. In the investigation of the samples for stability, the quantity of single impurities and the total quantity of impurities were evaluated, testifying to the degradation of the peptides. The pharmaceutical requirements of the company for impurities are: any single impurity, not more than 1.5%; total content of impurities, not more than 3.0%. If the content of impurities exceeded the above indicated values, the pharmaceutical form was deemed to have failed the test for stability.
# female rats = assay: Efficacy in vivo on preclinical model (Lordoz test): proceptive behavior of ovarioectomized, hormonally stimulated females; conditions: 100 mcg/rat, progesterone 0.5 mg/rat
# Description: Investigation of the Efficacy of the Peptides of the Invention as a Means of Stimulating the Genital and Sexual Functions
# In order to confirm the efficacy as a means of stimulating the genital and sexual functions, peptides according to the invention were synthesized, in particular the tripeptide Thr-Lys-Hyp, the pentapeptide Thr-Lys-Hyp-Arg-Hyp (SEQ ID NO: 12), and the hexapeptide Thr-Lys-Hyp-Arg-Hyp-Phe (SEQ ID NO: 13), and tests were performed as to the efficacy in vivo on the relevant preclinical model (Lordoz test). Furthermore, the efficacy of the group of peptides Thr-Lys-Pro, Thr-Lys-Pro-Arg-Pro (SEQ ID NO: 6), and Thr-Lys-Pro-Arg-Pro-Phe (SEQ ID NO: 7) was also investigated.
# The efficacy of the aforementioned groups of peptides was investigated in a dose of 100 mcg/rat with respect to the sexual behavior of female rats. The sexual behavior was registered over the course of 0-16 days in ovarioectomized, hormonally stimulated females in the case of direct contact with sexually active males and in the case when no such contact was possible. […] The results testify to an increase in sexual motivation under the action of the peptides Thr-Lys-Hyp, Thr-Lys-Hyp-Arg-Hyp (SEQ ID NO: 12), and Thr-Lys-Hyp-Arg-Hyp-Phe (SEQ ID NO: 13).
# [2] = stored for 1 month at +4° C., solution 0.2 mass % peptide, 0.01 mass % benzalkonium chloride
# [3] = stored for 1 month at +25° C., solution 0.2 mass % peptide, 0.01 mass % benzalkonium chloride
# [4] = stored for 12 months at +25° C.
# [5] = stored for 24 months at +25° C.
Substance,"Single impurities [1, 2] [%]","Total impurities [1, 2] [%]","Single impurities [1, 3] [%]","Total impurities [1, 3] [%]",Single impurities ([1]; stored for 3 months at +4° C.) [%],Total impurities ([1]; stored for 3 months at +4° C.) [%],Single impurities ([1]; stored for 3 months at +25° C.) [%],Total impurities ([1]; stored for 3 months at +25° C.) [%],Single impurities ([1]; stored for 6 months at +4° C.) [%],Total impurities ([1]; stored for 6 months at +4° C.) [%],Single impurities ([1]; stored for 6 months at +25° C.) [%],Total impurities ([1]; stored for 6 months at +25° C.) [%],Single impurities ([1]; stored for 12 months at +4° C.) [%],Total impurities ([1]; stored for 12 months at +4° C.) [%],Single impurities ([1]; stored for 24 months at +4° C.) [%],Total impurities ([1]; stored for 24 months at +4° C.),Number of proceptive behavior acts (female rats; day 0 of giving the drug),Number of proceptive behavior acts (female rats; day 5 of giving the drug),Number of proceptive behavior acts (female rats; day 11 of giving the drug),Number of proceptive behavior acts (female rats; day 16 of giving the drug),other results
Thr-Lys-Hyp-Arg-Hyp (TK[Hyp]R[Hyp]) [pentapeptide of the invention containing hydroxyproline],0.03,0.09,0.046,0.14,0.03,0.09,0.047,0.15,0.04,0.1,0.1,0.7,0.07,0.2,0.1,0.7%,13 ± 4,38 ± 4,36 ± 4,36 ± 6,"Single impurities [1, 4]: 0.2%; Total impurities [1, 4]: 0.9%; Single impurities [1, 5]: 0.9%; Total impurities [1, 5]: 1.2%"
Thr-Lys-Hyp-Arg-Hyp-Gly-Hyp (TK[Hyp]R[Hyp]G[Hyp]) [peptide according to the invention containing hydroxyproline],0.049,0.12,0.069,0.14,0.05,0.12,0.07,0.5,0.06,0.14,0.09,0.9,0.09,0.3,0.1,1.1%,,,,,"Single impurities [1, 4]: 0.3%; Total impurities [1, 4]: 1.1%; Single impurities [1, 5]: 1.2%; Total impurities [1, 5]: 2.6%"
Thr-Lys-Hyp-Arg-Hyp-Phe (TK[Hyp]R[Hyp]F) [hexapeptide of the invention containing hydroxyproline],0.067,0.15,0.032,0.09,0.068,0.15,0.033,0.09,0.08,0.2,0.09,0.6,0.1,0.3,0.9,1.9%,14 ± 4,24 ± 4,23 ± 4,24 ± 4,"Single impurities [1, 4]: 0.4%; Total impurities [1, 4]: 0.8%; Single impurities [1, 5]: 1.3%; Total impurities [1, 5]: 2.7%"
Thr-Lys-Pro [reference compound],0.051,0.13,0.06,0.1,0.053,0.135,0.13,0.25,0.3,0.9,1.7,3.1,0.9,1.7,1.2,2.2%,14 ± 4,15 ± 4,20 ± 4,28 ± 4,
"Thr-Lys-Pro-Arg-Pro (TKPRP; not fully specified; printed as Thr-Lys-Pro-Arg-Pro) [pentapeptide described in RU2507212, comparison peptide, reference compound]",0.042,0.09,0.067,0.54,0.042,0.93,0.19,0.9,0.09,1,1.4,3.0,0.8,1.5,1.1,1.9%,12 ± 4,15 ± 4,24 ± 4,36 ± 6,"Single impurities [1, 4]: 4%; Total impurities [1, 4]: 6%"
"Thr-Lys-Pro-Arg-Pro-Gly-Pro (TKPRPGP; not fully specified; printed as Thr-Lys-Pro-Arg-Pro-Gly-Pro) [heptopeptide “Selank”, a synthetic analogue of the endogenous peptide tuftsin, reference compound]",0.05,0.17,0.065,0.13,0.07,0.2,0.9,1.2,0.8,1.4,1.7,3.1,1,1.7,2,3.7%,,,,,
"Thr-Lys-Pro-Arg-Pro-Phe (TKPRPF; not fully specified; printed as Thr-Lys-Pro-Arg-Pro-Phe) [hexapeptide described in RU2507212, comparison peptide, reference compound]",0.054,0.17,0.11,0.19,0.09,0.18,0.9,1.1,0.5,1.1,1.9,3.5,0.9,1.3,1.6,"2,9%",14 ± 4,16 ± 4,19 ± 4,26 ± 4,
Thr-Lys-[Hyp],0.034,0.09,0.052,0.11,0.035,0.11,0.052,0.9,0.036,0.2,0.2,1,0.09,0.3,0.1,0.9%,12 ± 4,25 ± 4,24 ± 4,26 ± 4,"Single impurities [1, 4]: 0.3%; Total impurities [1, 4]: 1.2%; Single impurities [1, 5]: 0.8%; Total impurities [1, 5]: 1.8%"
